Where a chain is given by its changes, count along the chain named.
T1: human IL-2Rγ (common cytokine receptor γ-chain) (human, UniProt P31785 23-262, limits assumed)
T1 construct: Recombinant protein coated on the plate or immobilised on a CM5 chip; also called hu IL-2R; CD132
T1 sequence: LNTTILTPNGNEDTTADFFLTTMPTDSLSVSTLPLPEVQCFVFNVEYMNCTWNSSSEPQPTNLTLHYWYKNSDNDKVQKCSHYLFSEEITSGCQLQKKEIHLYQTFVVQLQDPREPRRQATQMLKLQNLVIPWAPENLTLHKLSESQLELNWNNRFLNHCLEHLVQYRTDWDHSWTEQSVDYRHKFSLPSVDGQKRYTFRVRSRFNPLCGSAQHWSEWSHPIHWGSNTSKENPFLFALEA

T2: human IL-2Rα (human, UniProt P01589 22-240, limits assumed)
T2 construct: recombinant protein; also called hu IL-2R; human IL-2Ra
T2 sequence: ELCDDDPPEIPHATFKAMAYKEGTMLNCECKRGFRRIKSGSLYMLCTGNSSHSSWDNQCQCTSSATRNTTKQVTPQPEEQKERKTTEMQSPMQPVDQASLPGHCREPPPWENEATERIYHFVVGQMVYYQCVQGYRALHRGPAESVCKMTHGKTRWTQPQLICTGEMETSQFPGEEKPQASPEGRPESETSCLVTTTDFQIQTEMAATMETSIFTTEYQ

B1: FJ1427_P035MP04A04 (VHH)
VHH: QVQLVESGGGLVQAGESLRLSCAASGPTASRVAVAWFRQVPGKEREFVAVVNRPGTMTKYADSVKGRFTISRDSAKNTVYLQMNSLKPEDTAVYYCAADSVPYGRPYYFQTSAGNYDYWGQGTQVTVSS
notes: VHH in periplasmic extract; also called clone nr
B2: FJ1427_P035MP04B03 (VHH)
VHH: B1 VHH with V5Q
notes: as for B1
B3: FJ1427_P035MP04C11 (VHH)
VHH: B1 VHH with A14H, E16G, A29F, A35G, T56S, T69N, S74T, Q110T, N115D
notes: as for B1
B4: FJ1427_P035MP04G09 (VHH)
VHH: B1 VHH with V5Q, E16G, A29F, A35G, V50A, G55A, S74N, Y80D, L86M, N115E
notes: as for B1
B5: FJ1427_P035MP04H08 (VHH)
VHH: B1 VHH with Q1E
notes: as for B1
B6: FJ1427_P035MP04D08 (VHH)
VHH: B1 VHH
notes: as for B1
B7: FJ1427_P035MP04A11 (VHH)
VHH: B1 VHH
notes: as for B1
B8: 1-MP01H01 (VHH)
VHH: EVQLVESGGGLVQAGGSLRLSCAASGRTFRTHNMGWFRRAPGKEREFVAAISWNVDNTLYADSVKGRFTISRDNGRNMVYLQMNSLKPEDTAVYYCAADNIPLSSDVAATATEYDYWGQGTQVTVSS
notes: periplasmic extract; also called FJ1427_P035MP01H01
B9: FJ1427_P035MP01D08 (VHH)
VHH: B8 VHH with R27G, H32R, I51V, T58K, D62G, V107M, A108R, A109P
notes: periplasmic extract; also called clone nr; 60
B10: FJ1427_P035MP01E05 (VHH)
VHH: B8 VHH with E1Q, K43E, A50V, T58K, A108R, Y114F, D115G
notes: periplasmic extract; also called clone nr; 37
B11: FJ1427_P035MP01G01 (VHH)
VHH: B8 VHH with E1Q, V5Q, G75D, Y95F, A108R, Y114F, D115G, Q122R
notes: periplasmic extract; also called clone nr
B12: FJ1427_P035MP01H08 (VHH)
VHH: B8 VHH with G10R, A14S, T28A, R30S, T58K, D62N, T69A, V107M, A108R, Y116V
notes: periplasmic extract; also called clone nr; 64
B13: FJ1427_P035MP01H11 (VHH)
VHH: B8 VHH with E1Q, G75D, Y95F, A108R, Y114F, D115G, Q122R
notes: periplasmic extract; also called clone nr; 88
B14: FJ1427_P035MP01D09 (VHH)
VHH: QVQLVESGGGLVQPGGSLRLSCAASGFTFSNNFMSWVRQAPGKGLEWVSTISYGGESTTYAESVKGRFTISRDNAKNTLYLQMNNLKPEDTAVYYCAKATSYDSIRSGSRGQGTQVTVSS
notes: periplasmic extract; also called clone nr; 68
B15: 2-MP01A02 (VHH)
VHH: B14 VHH with A24T, S30R
notes: periplasmic extract; also called FJ1427_P035MP01A02
B16: 8-MP01C12 (VHH)
VHH: B14 VHH with A24T, W47F, S63A, V93I, D103T, S107G, G108A, S109P
notes: periplasmic extract; also called FJ1427_P035MP01C12
B17: FJ1427_P035MP01C03 (VHH)
VHH: B14 VHH with Q1E, A24T, S30R
notes: periplasmic extract; also called clone nr; 19
B18: FJ1427_P035MP01D03 (VHH)
VHH: B14 VHH with Q1E, A24T, S30R, K43E
notes: periplasmic extract; also called clone nr; 20
B19: FJ1427_P035MP01E11 (VHH)
VHH: B14 VHH with G54F, E56D, T59R, A75E, Q112R
notes: periplasmic extract; also called clone nr; 85
B20: FJ1427_P035MP01F03 (VHH)
VHH: B14 VHH with I105V
notes: periplasmic extract; also called clone nr; 22
B21: FJ1427_P035MP01G04 (VHH)
VHH: B14 VHH with G54F, E56D, T59R, A75E, Y80H, Q112R
notes: periplasmic extract; also called clone nr; 31
B22: FJ1427_P035MP01H05 (VHH)
VHH: B14 VHH with Q1E, G54F, E56D, Q112R
notes: periplasmic extract; also called clone nr; 40
B23: 3-MP01E03 (VHH)
VHH: QVQLVESGGGLVQAGGSLRLSCTASGRTLSSYSMAWFRQAADKGREFVTAISSSGVVTHVLDSVKGRFTISRDNAKNTVYLQMNSLQPEDTALYFCAGTASSYSTYEANYNYWGQGTLVTVSS
notes: periplasmic extract; also called FJ1427_P035MP01E03
B24: FJ1427_P035MP01H07 (VHH)
VHH: B23 VHH with Q1E, T23A, S31G, S33A, A40P, A41P, V56I, G98A, T105D
notes: periplasmic extract; also called clone nr; 56
B25: 5-MP01F05 (VHH)
VHH: EVQLVESGGGLVQAGGSLRLSCAASIRAFTTWSMAWFRQAPGKEREYVARINVSGSVTYYADFVKGRFTISRDNAKKTMYLEMNNLKPEDTALYYCAADRTGVGTNDYNYWGQGTQVTVSS
notes: periplasmic extract; also called FJ1427_P035MP01F05
B26: 6-MP01G05 (VHH)
VHH: QVQLQESGGGLVQAGGSLRLSCAASGRTFSSYAMGWFRQAPGKEREFVAVISWNVDNTEYTDSVKGRFTISRDNDKNMVYLQMNSLKPEDTAVYYCAADSIPLSSDMSPTATEYGYWGQGTQVTVSS
notes: periplasmic extract; also called FJ1427_P035MP01G05
B27: FJ1427_P035MP01A11 (VHH)
VHH: QVQLVESGGGLVQPGGSLRLSCAASGRTFETHNMGWFRRAPGKEREFVAVISWNVDSTEYTDSVKGRFTISRDNDKNMVYLQMNSLKPEDTGVYYCAADNIPLSSDMSPTAAEYGYWGQGTQVTVSS
notes: periplasmic extract; also called clone nr; 81
B28: 07-MP01G08 (VHH)
VHH: EVQLVESGGGLVQAGGSLRLSCAASGRAFSMYNMGWFRQAPGKEREFVAATGWSGANTPYADSVKGRFTISRDNTQNTVYLQMNSLKPEDTATYYCAADSIRLRSDVTRIPLEYDYWGQGTQVTVSS
notes: periplasmic extract; also called FJ1427_P035MP01G08
B29: 10-MP05F03 (VHH)
VHH: QVQLVESGGGLVQAGGSLRLSCAASGIPFDNYAMGWFRQAPGKEREFVAARDLEGIITRYGDSVKGRFTISRGNAKNTVFLQMNSLKPEDTAVYYCAARDGGVVAGSRSSAQYNYWGQGTQVTVSS
notes: periplasmic extract; also called FJ1427_P035MP05F03
B30: FJ1427_P035MP05D06 (VHH)
VHH: QVQLVESGGGLVQAGDSLRLSCAASGFNFGWHAMGWFRQAPGKEREFVATITWTGRDTYYADSVRGRFTISKDNAKDTLFLQMNSLRPDDTGVYYCAKARERATWAYSEDDCDYWGQGTQVTVSS
notes: as for B11
B31: 13-MP05E12 (VHH)
VHH: B30 VHH with V5Q
notes: periplasmic extract; The row prints V ID 13-MP05E12 beside Clone ID ...MP05H07; clone nr; also called FJ1427_P035MP05H07
B32: FJ1427_P035MP05F06 (VHH)
VHH: B30 VHH with Q1E
notes: periplasmic extract; also called clone nr; 430
B33: FJ1427_P035MP01H10 (VHH)
VHH: QVQLVESGGGLVETGGSLRLSCAASGITFNDHTMAWFRQAPGKEREFVAARDWSDIITRYASSVKGRFTISRDNAGNTGFLQMNSLRPEDTAVYYCAAREGGVVAGVRSGAPYDYWGQGTQVTVSS
notes: periplasmic extract; also called clone nr; 80

What follows are binders tested against T1, human IL-2Rγ (common cytokine receptor …) (assay: PE binding ELISA, periplasmic extract on coated protein).
Method: (§1) In a binding ELISA, human or mouse IL-2Rα, IL-2Rβ and IL-2Rγ proteins were coated directly on maxisorp microtiter plates overnight at 4° C. Free binding sites were blocked using 4% Marvel in PBS for 1 hour. Next, 1:5 dilution of P.E. in 1% Marvel/PBS were added to wells and incubated for 1 hour. […] Binding specificity was determined based on O.D. at 450 nm values compared to negative controls.

| Binder | OD (PE binding ELISA) [OD450 nm] |
| --- | --- |
| B1 | 1.31 |
| B2 | 1.37 |
| B3 | 0.912 |
| B4 | 0.559 |
| B5 | 1.3 |
| B6 | 0.579 |
| B7 | 0.593 |

Each binder was assayed against T1, human IL-2Rγ (common cytokine receptor …) (assay: SPR off-rate ranking, periplasmic extract on immobilised protein).
Method: (§2) SPR was performed to determine dissociation rates using Biacore 3000 instrument (GE Healthcare). Briefly, human and mouse IL-2R proteins were immobilized on carboxylmethyl dextran sensor chip (CM5) at approximately 2500 RUs using amine coupling in acetate buffer (GE Healthcare). The VHH-containing P.E. were loaded with a flow rate of 30 uL/min and the off-rates were measured over a 120s period.

| Binder | koff [s⁻¹] |
| --- | --- |
| B1 | 0.0378 |
| B2 | 0.0421 |
| B3 | 0.0693 |
| B4 | 0.0658 |
| B5 | 0.048 |
| B6 | 0.0195 |
| B7 | 0.0165 |

Each binder was assayed against T2, human IL-2Rα (assay: ELISA, P.E. on coated antigen).
Method: as §1

| Binder | OD (PE binding ELISA) [OD450 nm] |
| --- | --- |
| B8 | 1.71 |
| B9 | 2.62 |
| B10 | 2.59 |
| B11 | 2.52 |
| B12 | 2.6 |
| B13 | 2.62 |
| B14 | 2.57 |
| B15 | 2.62 |
| B16 | 2.53 |
| B17 | 2.84 |
| B18 | 2.59 |
| B19 | 2.69 |
| B20 | 2.87 |
| B21 | 2.79 |
| B22 | 2.65 |
| B23 | 2.54 |
| B24 | 2.14 |
| B25 | 2.62 |
| B26 | 1.79 |
| B27 | 2.81 |
| B28 | 2.57 |
| B29 | 2.46 |
| B30 | 2.51 |
| B31 | 2.34 |
| B32 | 2.51 |
| B33 | 2.47 |

Each binder was assayed against T2, human IL-2Rα (assay: SPR, P.E. on immobilised antigen).
Method: as §2

| Binder | koff [s⁻¹] |
| --- | --- |
| B8 | 0.0229 |
| B9 | 0.000842 |
| B10 | 0.000498 |
| B11 | 0.000414 |
| B13 | 0.000725 |
| B14 | 0.00212 |
| B15 | 0.00153 |
| B16 | 0.000383 |
| B17 | 0.00144 |
| B18 | 0.00189 |
| B19 | 0.000704 |
| B20 | 0.00327 |
| B21 | 0.00107 |
| B22 | 0.00276 |
| B23 | 0.000799 |
| B24 | 0.00112 |
| B25 | 0.00042 |
| B26 | 0.0206 |
| B27 | 0.000778 |
| B28 | 0.00184 |
| B29 | 0.000639 |
| B30 | 0.000677 |
| B31 | 0.000742 |
| B32 | 0.00067 |
